Measured values: patent US12012615B2, “Method of making induced pluripotent stem cells using p53 inhibitors” (Kyoto University, priority 2008, dated 2024)

Experiments:
[1] = test system: Fibroblasts (MEF) from a fetal p53 hetero-deficient mouse having the Nanog reporter; assay: Establishment of iPS cells (GFP-positive colonies) from MEFs with 4 factors and a p53 inhibitor; assay type: cell-based; conditions: 4 factors; 6 nM in medium from day 6; counted on day 20; compared with cells treated with DMSO
Procedure: The effects of a p53 inhibitor on the efficiency of establishment of iPS cells were examined. The retrovirus used for reprogramming was prepared by introducing a retrovirus expression vector (pMXs-Oct3/4, pMXs-Sox2, pMXs-Klf4, pMXs-cMyc) into Plat-E cells that had been sown to a 6-well culture plate (Falcon) at 0.6×10^6 cells per well on the previous day. The culture broth used was DMEM/10% FCS (DMEM (Nacalai tesque) supplemented with 10% fetal bovine serum), and cultured at 37° C. and 5% CO2. For vector transfer, 4.5 μL of the FuGene6 transfection reagent (Roche) was placed in 100 μL of Opti-MEM I Reduced-Serum Medium (Invitrogen), and this mixture was allowed to stand at room temperature for 5 minutes. Thereafter, 1.5 μg of each expression vector was added, and the mixture was further allowed to stand at room temperature for 15 minutes, and then added to Plat-E culture broth. On day 2, the Plat-E supernatant was exchanged with a fresh supply of the medium; on day 3, the culture supernatant was recovered and filtered through a 0.45 μm sterile filter (Whatman), polybrene (Nacalai) was added to obtain a concentration of 4 μg/mL, and this was used as the viral liquid.
Fibroblasts (MEF) were isolated from a fetal p53 hetero-deficient mouse having the Nanog reporter (13.5 days after fertilization). […] GFP-positive colonies were counted on day 20. […]

p53-null MEF = assay: iPS cell generation from p53-null MEF with forced expression of p21; assay type: cell-based, mouse
HDF = assay: iPS cell generation from HDF with p53-regulated genes, with or without the p53 shRNA; assay type: cell-based, human; conditions: four factors and the p53 shRNA; colonies counted day 28
Excerpt: Genes regulated (4 increased and 7 decreased) by p53 suppression were introduced into HDFs together with the four reprogramming factors (FIG. 24A) or the four reprogramming factors and the p53 shRNA (FIG. 24B). On day 24 (FIG. 24A) or day 28 (FIG. 24B) post-transduction, numbers of iPS cell colonies were counted. **; p<0.01 compared to DsRed control (n=3).
Among these we transduced four increased genes and seven decreased genes by retroviruses into HDF, together with either the four reprogramming factors alone, or with the four factors and the p53 shRNA.

[2] = test system: Fibroblasts (MEFs) from a fetal p53 hetero-deficient mouse having a Nanog reporter; assay: Establishment of iPS cells from MEFs with 4 or 3 factors and the dominant negative mutant p53P275S; assay type: cell-based; conditions: compared with mutation-free p53 or DsRedExpress
Procedure: The function of endogenous p53 was inhibited using a dominant negative mutant of p53, and its influence on the efficiency of establishment of iPS cells was investigated. The dominant negative mutant used was p53P275S, prepared by causing a point mutation of the proline at the position 275 located in the genome-binding region of p53 to serine (Annemieke de Vries (2002). PNAS 99, 2948-2953).
The retrovirus used for reprogramming was prepared by introducing retrovirus expression vector (pMXs-Oct3/4, pMXs-Sox2, pMXs-Klf4, pMXs-cMyc, pMXs-p53P275S) into Plat-E cells that had been sown to a 6-well culture plate (Falcon) at 0.6×10^6 cells per well on the previous day (for how to prepare pMXs-p53P275S, see Example 6 below). The culture broth used was DMEM/10% FCS (DMEM (Nacalai tesque) supplemented with 10% fetal bovine serum), and cultured at 37° C. and 5% CO2. For vector transfer, 4.5 μL of the FuGene6 transfection reagent (Roche) was placed in 100 μL of Opti-MEM I Reduced-Serum Medium (Invitrogen), and this mixture was allowed to stand at room temperature for 5 minutes. Thereafter, 1.5 μg of each expression vector was added, and the mixture was further allowed to stand at room temperature for 15 minutes, and then added to Plat-E culture broth. […]
GFP-positive colonies were counted on day 21 for the 4 factors, and on day 28 for the 3 factors. […]

[3] = test system: Oct4-GFP, p53-heterozygous MEF; assay: iPS generation by the three factors co-transduced with wild-type or mutant p53, p53-heterozygous MEFs; assay type: cell-based, mouse; conditions: retroviral co-transduction, counted 28 days after transduction
Excerpt: (§1) FIGS. 13A and 13B show iPS generation from p53 heterozygous or homozygous MEFs by the three factors co-transduced with wild-type or mutant p53. […] After retroviral transduction, 5000 cells were collected and GFP-positive colonies were counted 28 days after the transduction. Data of three independent experiments are shown. […] After retroviral transduction, 5000 live cells were collected and GFP-positive colonies were counted 28 days after the transduction. Data of two independent experiments are shown.
(§2) We used either the Nanog-GFP or Oct3/4-GFP reporter system for sensitive and specific identification of iPS cells (Okita K. et al. Nature 448, 313 (2007)). […] The cells were infected next day (day 0) with retrovirus made from Plat-E. On day 5, cells were reseeded either at one cell per well of 96-plates by a cell sorter (FACS Aria, Beckton Dekinson) or 5000 cells per 100 mm-dish. Puromycin selection ([…]) was initiated on day 13 in the four-factor protocol and on day 19 in the three factor protocol. Numbers of GFP positive colonies were determined on day 21 for the four-factor protocol and on day 28 in the three factor protocol.
(§3) First, we tested the effect of dominant negative mutants of p53 on the generation of iPS cells. […] After sequencing verification, cDNA was transferred to pMXs-gw by Gateway cloning technology (Invitrogen). […]

Nanog-GFP, p53-null MEFs = assay: iPS generation by the three factors co-transduced with wild-type or mutant p53, p53-null MEFs; assay type: cell-based, mouse; conditions: retroviral co-transduction, counted 28 days after transduction
Excerpt: as §1, §2, §3

O=[N+]([O-])c1ccc(-c2cn3c4c(sc3n2)CCCC4)cc1 [Pifithrin α, p-Nitro, Cyclic, 2-(4-Nitrophenyl)imidazo[2,1-b]-5,6,7,8-tetrahydrobenzothiazole]
increase in the number of GFP-positive colonies [1]: about 4 times

p21: cyclin-dependent kinase inhibitor 1A (p21, Cip1), p53 target gene, forcibly expressed by retrovirus
iPS cell generation (p53-null MEF): markedly decreased
counteraction of the effect of the p53 shRNA on iPS cell generation (HDF): effectively counteracted

B1: p53P275S: dominant negative mutant of mouse p53, proline 275 to serine, expressed from retroviral vector pMXs-p53P275S (protein, UniProt P02340 1-390, looked up, variant P275S)
Cellular tumor antigen p53: MTAMEESQSDISLELPLSQETFSGLWKLLPPEDILPSPHCMDDLLLPQDVEEFFEGPSEALRVSGAPAAQDPVTETPGPVAPAPATPWPLSSFVPSQKTYQGNYGFHLGFLQSGTAKSVMCTYSPPLNKLFCQLAKTCPVQLWVSATPPAGSRVRAMAIYKKSQHMTEVVRRCPHHERCSDGDGLAPPQHLIRVEGNLYPEYLEDRQTFRHSVVVPYEPPEAGSEYTTIHYKYMCNSSCMGGMNRRPILTIITLEDSSGNLLGRDSFEVRVCACSGRDRRTEEENFRKKEVLCPELPPGSAKRALPTCTSASPPQKKKPLDGEYFTLKIRGRKRFEMFRELNEALELKDAHATEESGDSRAHSSYLKTKKGQSTSRHKKTMVKKVGPDSD
increase in the number of GFP-positive colonies ([2]; 3 factors, counted on day 28): about 3 times
increase in the number of GFP-positive colonies ([2]; 4 factors, counted on day 21): about 4 times
number of GFP-positive colonies / efficiency of iPS cell generation [3]: substantial increase

B2: S58A: transactivation-negative mouse p53 mutant, serine 58 to alanine, retrovirally expressed (protein, UniProt P02340 1-390, looked up, variant S58A)
Cellular tumor antigen p53: MTAMEESQSDISLELPLSQETFSGLWKLLPPEDILPSPHCMDDLLLPQDVEEFFEGPAEALRVSGAPAAQDPVTETPGPVAPAPATPWPLSSFVPSQKTYQGNYGFHLGFLQSGTAKSVMCTYSPPLNKLFCQLAKTCPVQLWVSATPPAGSRVRAMAIYKKSQHMTEVVRRCPHHERCSDGDGLAPPQHLIRVEGNLYPEYLEDRQTFRHSVVVPYEPPEAGSEYTTIHYKYMCNSSCMGGMNRRPILTIITLEDSSGNLLGRDSFEVRVCACPGRDRRTEEENFRKKEVLCPELPPGSAKRALPTCTSASPPQKKKPLDGEYFTLKIRGRKRFEMFRELNEALELKDAHATEESGDSRAHSSYLKTKKGQSTSRHKKTMVKKVGPDSD
number of GFP-positive colonies (Nanog-GFP, p53-null MEFs): weaker effects

B3: D278N: transactivation-negative mouse p53 mutant, aspartic acid 278 to asparagine, retrovirally expressed (protein, UniProt P02340 1-390, looked up, variant D278N)
Cellular tumor antigen p53: MTAMEESQSDISLELPLSQETFSGLWKLLPPEDILPSPHCMDDLLLPQDVEEFFEGPSEALRVSGAPAAQDPVTETPGPVAPAPATPWPLSSFVPSQKTYQGNYGFHLGFLQSGTAKSVMCTYSPPLNKLFCQLAKTCPVQLWVSATPPAGSRVRAMAIYKKSQHMTEVVRRCPHHERCSDGDGLAPPQHLIRVEGNLYPEYLEDRQTFRHSVVVPYEPPEAGSEYTTIHYKYMCNSSCMGGMNRRPILTIITLEDSSGNLLGRDSFEVRVCACPGRNRRTEEENFRKKEVLCPELPPGSAKRALPTCTSASPPQKKKPLDGEYFTLKIRGRKRFEMFRELNEALELKDAHATEESGDSRAHSSYLKTKKGQSTSRHKKTMVKKVGPDSD
number of GFP-positive colonies (Nanog-GFP, p53-null MEFs): weaker effects
